From patent publication US20110123544A1 (published 2011) come the findings set out here.

For one experiment, the target named is T1, recombinant murine IL-12 (mouse, UniProt P43432 23-335; P43431 23-215).
T1 construct: R&D Systems Cat. No. 419-ML in the BIAcore test; 'purified murine IL-12' in the bioassays; also called mouse IL-12; rmIL12
T1 sequence (looked up) 1: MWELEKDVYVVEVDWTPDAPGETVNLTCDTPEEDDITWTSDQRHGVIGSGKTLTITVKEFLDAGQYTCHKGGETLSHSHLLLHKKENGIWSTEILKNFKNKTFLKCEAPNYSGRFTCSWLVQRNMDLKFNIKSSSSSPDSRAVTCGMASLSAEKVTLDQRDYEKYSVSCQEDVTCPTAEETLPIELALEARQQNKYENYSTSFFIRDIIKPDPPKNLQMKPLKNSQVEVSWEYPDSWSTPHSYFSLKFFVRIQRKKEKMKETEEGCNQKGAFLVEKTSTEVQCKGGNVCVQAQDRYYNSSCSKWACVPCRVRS
T1 sequence (looked up) 2: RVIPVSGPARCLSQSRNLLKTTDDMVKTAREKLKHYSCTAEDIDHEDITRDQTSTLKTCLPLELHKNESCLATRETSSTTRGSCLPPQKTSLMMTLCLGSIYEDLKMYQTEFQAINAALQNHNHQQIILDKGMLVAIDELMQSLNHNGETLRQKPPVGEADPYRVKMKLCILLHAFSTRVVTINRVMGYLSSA
Kind of experiment: neutralisation bioassay with purified murine IL-12 (2D6 cell proliferation).

The next experiment concerns the target T2, recombinant rhesus IL-12 (rhesus monkey, UniProt P48095 23-328; P48091 23-219).
T2 construct: Obtained from Emory University School of Medicine
T2 sequence (looked up) 1: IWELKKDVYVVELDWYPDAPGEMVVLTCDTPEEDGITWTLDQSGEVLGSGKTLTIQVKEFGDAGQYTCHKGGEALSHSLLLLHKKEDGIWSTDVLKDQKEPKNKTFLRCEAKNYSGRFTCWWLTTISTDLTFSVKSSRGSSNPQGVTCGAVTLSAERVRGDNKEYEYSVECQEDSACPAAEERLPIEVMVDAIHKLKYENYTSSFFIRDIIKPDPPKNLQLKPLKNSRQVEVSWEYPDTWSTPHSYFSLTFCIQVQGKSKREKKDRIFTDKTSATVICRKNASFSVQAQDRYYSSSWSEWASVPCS
T2 sequence (looked up) 2: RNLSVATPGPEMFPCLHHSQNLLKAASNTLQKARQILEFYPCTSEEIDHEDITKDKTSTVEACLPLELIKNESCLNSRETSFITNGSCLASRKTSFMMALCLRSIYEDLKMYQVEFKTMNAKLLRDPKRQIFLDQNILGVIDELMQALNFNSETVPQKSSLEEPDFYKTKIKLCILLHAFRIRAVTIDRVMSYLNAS
The experiment is described as follows: neutralisation bioassays with purified rhesus IL-12.

Method for recombinant murine IL-12: 2D6 cells were washed once and resuspended in RPMI complete medium containinγ βME to a cell density of 1×10⁵ cells/ml. […] The culture contents were harvested and counted by liquid scintillation counting. All samples were assayed in duplicate.

B1: J695 human anti-human IL-12 antibody (antibody, V domains shown)
VH: QVQLVESGGGVVQPGRSLRLSCAASGFTFSSYGMHWVRQAPGKGLEWVAFIRYDGSNKYYADSVKGRFTISRDNSKNTLYLQMNSLRAEDTAVYYCKTHGSHDNWGQGTMVTVSS
VL: QSVLTQPPSVSGAPGQRVTISCSGSRSNIGSNTVKWYQQLPGTAPKLLIYYNDQRPSGVPDRFSGSKSGTSASLAITGLQAEDEADYYCQSYDRYTHPALLFGTGTKVTVLG
notes: tested as human IgG1 with lambda light chain (detected with anti-human lambda); Made in CHO or COS cells; also called Y61-L94Y-L50Y IgG
In the case of B1, the values for the binding result in the experiment with recombinant murine IL-12 and with recombinant rhesus IL-12 were “no binding” and “binds”, respectively.
